Measured values reported in patent publication US11278600B2, “Human alpha-galactosidase variants” (Codexis, Inc., priority 2014, dated 2022).
Positions count from the first letter of the chain named.

B1: 117 (protein)
chain: LDNGLARTPTMGWLHWERFMCNLDCQEEPDSCISEKLFMEMAELMVSEGWKDAGYEYLCIDDCWMAPQRDSEGRLQADPQRFPHGIRQLANYVHSKGLKLGIYADVGNKTCAGFPGSFGYYDIDAQTFADWGVDLLKFDGCYCDSLENLADGYKHMSLALNRTGRSIVYSCEWPLYMWPFQKPNYTEIRQYCNHWRNFADIDDSWKSIKSILDWTSFNQERIVDVAGPGGWNDPDMLVIGNFGLSWNQQVTQMALWAIMAAPLFMSNDLRHISPQAKALLQDKDVIAINQDPLGKQGYQLRQGDNFEVWERPLSGLAWAVAMINRQEIGGPRSYTIAVASLGKGVACNPACFITQLLPVKRKLGFYEWTSRLRSHINPTGTVLLQLENTMQMSKDLLG
modifications: Synthetic Polypeptide sequence of Variant No. 117 of mature Human GLA
B2: 198 (protein)
chain: B1 chain with K206A, A350G, T369D, G398L
modifications: Synthetic Polypeptide sequence of Variant No. 198 of mature Human GLA
B3: 200 (protein)
chain: B1 chain with C143A, K206A, G398L
modifications: Synthetic Polypeptide sequence of Variant No. 200 of mature Human GLA
B4: 195 (protein)
chain: B1 chain with K206S, G398L
modifications: Synthetic Polypeptide sequence of Variant No. 195 of mature Human GLA
B5: 118 (protein)
chain: B1 chain with G398N
modifications: Synthetic Polypeptide sequence of Variant No. 118 of mature Human GLA
B6: 196 (protein)
chain: B1 chain with K206A, A350G, G398L
modifications: Synthetic Polypeptide sequence of Variant No. 196 of mature Human GLA
B7: 121 (protein)
chain: B1 chain with L44R, L384F, G398L
modifications: Synthetic Polypeptide sequence of Variant No. 121 of mature Human GLA
B8: 201 (protein)
chain: B1 chain with C143T, K206A, G398L
modifications: Synthetic Polypeptide sequence of Variant No. 201 of mature Human GLA
B9: 197 (protein)
chain: B1 chain with K206A, A350G, K362Q, T369A, G398L
modifications: Synthetic Polypeptide sequence of Variant No. 197 of mature Human GLA
B10: 120 (protein)
chain: B1 chain with G398R
modifications: Synthetic Polypeptide sequence of Variant No. 120 of mature Human GLA
B11: 122 (protein)
chain: B1 chain with L44T, G398L
modifications: Synthetic Polypeptide sequence of Variant No. 122 of mature Human GLA
B12: 35 (protein)
chain: B1 chain with A339S, G398L
modifications: Synthetic Polypeptide sequence of Variant No. 35 of mature Human GLA
B13: 199 (protein)
chain: B1 chain with K206A, A350G, T369S, G398L
modifications: Synthetic Polypeptide sequence of Variant No. 199 of mature Human GLA
B14: 194 (protein)
chain: B1 chain with K206R, G398L
modifications: Synthetic Polypeptide sequence of Variant No. 194 of mature Human GLA
B15: 119 (protein)
chain: B1 chain with G398Q
modifications: Synthetic Polypeptide sequence of Variant No. 119 of mature Human GLA

Assays:
Type in all cases: biochemical
[1] = HTP-analysis of supernatants pretreated with base (MUGal hydrolysis); conditions: yeast supernatant; for Relative Activity of GLA Variants After Challenge at pH 7.1: activity of the variant/activity of WT GLA (SEQ ID NO: 5); for Relative Activity of GLA Variants After Challenge at pH 7.6: activity of the variant/activity of Rd2BB (SEQ ID NO: 10)
Procedure, shortened: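 GLA variants were secreted by transformed INVSc1 yeast grown 66-84 h at 30° C. Supernatants were exposed to neutral-to-basic buffers (pH 7.0-9.7) at 37° C for 1-18 h, then assayed with MUGal in acidic citrate/McIlvaine buffer, with fluorescence read after quenching.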

[2] = HTP-analysis of yeast culture supernatants, no challenge (MUGal hydrolysis); conditions: yeast supernatant
Procedure, shortened: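 GLA variants were expressed in INVSc1 yeast grown in SD-Ura broth with glucose at 30° C., and culture supernatants were collected after 66-84 h. Supernatant was mixed with McIlvaine buffer pH 4.8 and MUGal (2 mM stock) in 50 mM citrate, 200 mM KCl, pH 4.6, incubated at 37° C. for 30-180 minutes, then quenched with sodium carbonate.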

[3] = HTP-analysis of supernatants pretreated with acid (MUGal hydrolysis); conditions: challenge at pH 4.2, yeast supernatant
Procedure, shortened: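 Fluorescence of MUGal hydrolysis (Ex. 355 nm, Em. 448 nm) is read after sodium carbonate quench. The enzyme source is INVSc1 yeast culture supernatant, first exposed to pH 3.3-4.3 McIlvaine buffer at 37° C. for 1-3 h, then reacted at pH 4.8 for 30-180 minutes.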

[4] = activity of the variant/activity of WT GLA (SEQ ID NO: 5)
[5] = activity of the variant/activity of Rd2BB (SEQ ID NO: 10)

Row | Molecule | Relative Activity of GLA Variants After Challenge at pH 7.1 [1] | Relative Activity of GLA Variants After No Challenge (NC) [2, 4] | Relative Activity of GLA Variants After Challenge at pH 4.2 [3, 4] | Relative Activity of GLA Variants After Challenge at pH 7.6 [1] | Relative Activity of GLA Variants After No Challenge (NC) [2, 5] | Relative Activity of GLA Variants After Challenge at pH 4.2 [3, 5]
1 | B1 | ++ (++ = >1.5 to 2.5 relative activity over WT GLA (SEQ ID NO: 5)) | ++ (++ = >1.5 to 2.5 relative activity over WT GLA (SEQ ID NO: 5)) | ++ (++ = >1.5 to 2.5 relative activity over WT GLA (SEQ ID NO: 5)) |  |  | 
2 | B2 |  |  |  | +++ (+++ = >2.5 relative activity over Rd2BB (SEQ ID NO: 10)) | ++ (++ = 1.5 to 2.5 relative activity over Rd2BB (SEQ ID NO: 10)) | ++ (++ = 1.5 to 2.5 relative activity over Rd2BB (SEQ ID NO: 10))
3 | B3 |  |  |  | + (+ = 0.5 to 1.5 relative activity over Rd2BB (SEQ ID NO: 10)) | + (+ = 0.5 to 1.5 relative activity over Rd2BB (SEQ ID NO: 10)) | + (+ = 0.5 to 1.5 relative activity over Rd2BB (SEQ ID NO: 10))
4 | B4 |  |  |  | + (+ = 0.5 to 1.5 relative activity over Rd2BB (SEQ ID NO: 10)) | + (+ = 0.5 to 1.5 relative activity over Rd2BB (SEQ ID NO: 10)) | + (+ = 0.5 to 1.5 relative activity over Rd2BB (SEQ ID NO: 10))
5 | B5 | ++ (++ = >1.5 to 2.5 relative activity over WT GLA (SEQ ID NO: 5)) | ++ (++ = >1.5 to 2.5 relative activity over WT GLA (SEQ ID NO: 5)) | ++ (++ = >1.5 to 2.5 relative activity over WT GLA (SEQ ID NO: 5)) |  |  | 
6 | B6 |  |  |  | + (+ = 0.5 to 1.5 relative activity over Rd2BB (SEQ ID NO: 10)) | + (+ = 0.5 to 1.5 relative activity over Rd2BB (SEQ ID NO: 10)) | + (+ = 0.5 to 1.5 relative activity over Rd2BB (SEQ ID NO: 10))
7 | B7 | ++ (++ = >1.5 to 2.5 relative activity over WT GLA (SEQ ID NO: 5)) | + (+ = 0.5 to 1.5 relative activity over WT GLA (SEQ ID NO: 5)) | ++ (++ = >1.5 to 2.5 relative activity over WT GLA (SEQ ID NO: 5)) |  |  | 
8 | B8 |  |  |  | + (+ = 0.5 to 1.5 relative activity over Rd2BB (SEQ ID NO: 10)) | + (+ = 0.5 to 1.5 relative activity over Rd2BB (SEQ ID NO: 10)) | + (+ = 0.5 to 1.5 relative activity over Rd2BB (SEQ ID NO: 10))
9 | B9 |  |  |  | ++ (++ = 1.5 to 2.5 relative activity over Rd2BB (SEQ ID NO: 10)) | ++ (++ = 1.5 to 2.5 relative activity over Rd2BB (SEQ ID NO: 10)) | ++ (++ = 1.5 to 2.5 relative activity over Rd2BB (SEQ ID NO: 10))
10 | B10 | ++ (++ = >1.5 to 2.5 relative activity over WT GLA (SEQ ID NO: 5)) | ++ (++ = >1.5 to 2.5 relative activity over WT GLA (SEQ ID NO: 5)) | ++ (++ = >1.5 to 2.5 relative activity over WT GLA (SEQ ID NO: 5)) |  |  | 
11 | B11 | ++ (++ = >1.5 to 2.5 relative activity over WT GLA (SEQ ID NO: 5)) | ++ (++ = >1.5 to 2.5 relative activity over WT GLA (SEQ ID NO: 5)) | ++ (++ = >1.5 to 2.5 relative activity over WT GLA (SEQ ID NO: 5)) |  |  | 
12 | B12 | ++ (++ = >1.5 to 2.5 relative activity over WT GLA (SEQ ID NO: 5)) | ++ (++ = >1.5 to 2.5 relative activity over WT GLA (SEQ ID NO: 5)) | ++ (++ = >1.5 to 2.5 relative activity over WT GLA (SEQ ID NO: 5)) |  |  | 
13 | B13 |  |  |  | ++ (++ = 1.5 to 2.5 relative activity over Rd2BB (SEQ ID NO: 10)) | ++ (++ = 1.5 to 2.5 relative activity over Rd2BB (SEQ ID NO: 10)) | ++ (++ = 1.5 to 2.5 relative activity over Rd2BB (SEQ ID NO: 10))
14 | B14 |  |  |  | ++ (++ = 1.5 to 2.5 relative activity over Rd2BB (SEQ ID NO: 10)) | ++ (++ = 1.5 to 2.5 relative activity over Rd2BB (SEQ ID NO: 10)) | ++ (++ = 1.5 to 2.5 relative activity over Rd2BB (SEQ ID NO: 10))
15 | B15 | ++ (++ = >1.5 to 2.5 relative activity over WT GLA (SEQ ID NO: 5)) | ++ (++ = >1.5 to 2.5 relative activity over WT GLA (SEQ ID NO: 5)) | ++ (++ = >1.5 to 2.5 relative activity over WT GLA (SEQ ID NO: 5)) |  |  | 
